Assay results taken from patent publication US20230190701A1, “Compounds for Treating Tauopathies and Restless Leg Syndrome and Methods of Using and Screening for Same” (The United States Government as Represented, priority 2020, published 2023).

What was measured:
Type in all cases: biochemical
[1] = molecular target: T1, PTPRD D1 phosphatase (SEQ ID NO: 1) (Homo sapiens, UniProt P23468); assay: Orthophosphate release assay (malachite green/molybdate) with phosphopeptide substrates; conditions: for normalized rates of liberation of orthophosphate from pY15CDK5 alanine substitution mutants vs wildtype: FIG. 5, Glu-substitution mutants (1, 4, 6) reductions, Lys-substitution mutants (2, 7) increases; for PTPRD's activity in dephosphorylating CDK5 phosphopeptide (positive allosteric modulation): pY15 CDK5 phosphopeptide, flavonoid 10^−4 M (FIG. 7); for PTPRD's activity in dephosphorylating CDK5 phosphopeptide (positive allosteric modulation) / PTPRD's activity in dephosphorylating GSK3 phosphopeptide (positive allosteric modulation): vs vehicle; for PTPRD's activity in dephosphorylating GSK3 phosphopeptide (positive allosteric modulation): pYGSK3 phosphopeptide, flavonoid 10^−4 M (FIG. 8)
T1 construct: His6 (N); made in house; host or cells: E. coli (vector optimized for E. coli codon use)
T1 sequence (P23468 with tags, fused parts or gaps): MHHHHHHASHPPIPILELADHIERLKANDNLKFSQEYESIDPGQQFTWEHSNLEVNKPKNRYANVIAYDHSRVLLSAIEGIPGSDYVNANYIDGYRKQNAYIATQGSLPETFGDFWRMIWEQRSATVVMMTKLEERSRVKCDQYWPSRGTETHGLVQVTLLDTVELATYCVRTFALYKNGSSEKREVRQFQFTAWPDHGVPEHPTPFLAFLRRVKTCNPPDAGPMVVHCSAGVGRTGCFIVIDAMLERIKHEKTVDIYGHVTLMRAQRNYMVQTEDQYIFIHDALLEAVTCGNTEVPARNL
Excerpt: The following examples utilized phosphatase protein produced from a His-tagged D1 phosphatase domain synthesized expression vector optimized for E. coli codon use (SEQ ID NO: 1). This protein was purified to >95% purity and was active in hydrolyzing pNPP substrate (FIG. 1). Human wildtype and mutant phospho- and dephospho-GSK3β/GSK3α and CDK5 peptides were synthesized (Pierce/ThermoFisher, SEQ ID NOs: 2-12) and control END(pY)INASL peptide (Promega, SEQ ID NO: 13) was purchased. Flavonoids were purchased from Thermo-Fisher, Aldrich, Cayman Chemical and AK Scientific. Purities were >95%.
Orthophosphate release assays (Promega V2471) used Malachite green and molybdate with spectrophotometric detection of liberated free orthophosphate from test phosphopeptides compared to control and mutant peptides with assessments for the times indicated. Reactions were carried out in a half-area 96-well plate, with three wells dedicated for each time point. To each experimental well, we added a mixture of 18 μL of ultrapure water, 25 μL of running buffer, 1 μL of a 10 mM DMSO solution of the desired peptide, and 1 μL of DMSO containing a desired concentration of flavonoid, or 1 μL DMSO for control experiments. The supplied molybdate dye mixture (50 μL) was added at t=0, followed by 5 μL of a 1:100 dilution of enzyme in the aforementioned dilution buffer. Other wells were initiated via the addition of 5 μL of the diluted enzyme mixture@t=0 and terminated at the desired timepoints by addition of 50 μL of the dye solution. Wells were read@605 nm.

[2] = molecular target: T2, human PTPRD phosphatase (Homo sapiens, UniProt P23468); assay: pNPP dephosphorylation to p-nitrophenolate (405 nm); conditions: FIG. 4; peptide 4×10^−4 M, pNPP 1.8×10^−5M
T2 construct: His6 (N); made in house; host or cells: E. coli (vector optimized for E. coli codon use)
T2 sequence (P23468 with tags, fused parts or gaps): T1 sequence (P23468 with tags, fused parts or gaps)
Procedure: pNPP dephosphorylation to p-nitrophenolate: Triplicate assays were used for human PTPRD phosphatase, pNPP substrate and spectrophotometric 405 nm detection of the dephosphorylation product of these enzyme's activities using a Spectromax plate reader. Controls used 5×10^−5M 7-BIA with 18 min incubations as described. See G. R. Uhl et al., “Cocaine reward is reduced by decreased expression of receptor-type protein tyrosine phosphatase D (PTPRD) and by a novel PTPRD antagonist.” Proc Natl Acad Sci USA 115, 11597-11602 (2018). For assays determining the effect of flavonoids on pNPP hydrolysis, a 96 well half-area plate was prepared by first filling each well to be tested with 18 μL of 50 μM pNPP and 25 μL of running buffer (43.4 μM HEPES (pH 7.4), 2.2 μM dithiothreitol, 0.44% acetylated bovine serum albumin, 22.2 μM NaCl, 4.4 μM EDTA), and 2 μL of DMSO containing the desired concentration of flavonoid and/or peptide. PTPRD1 was diluted 1:50 in a dilution buffer (22.9 μM pH 7.4 HEPES, 1% acetylated bovine serum albumin, 4.6 μM dithiothreitol). At the zero time point, 5 uL of this solution was added to each well, and the optical density was measured in 36 second intervals at 405 nm. Results were plotted and the slopes of the linear region were fit. All experiments were performed three times with three wells dedicated to each experimental condition in each experiment.

[3] = molecular target: T1, PTPRD D1 phosphatase (SEQ ID NO: 1); assay: Orthophosphate release assay (malachite green/molybdate) with phosphopeptide substrates; conditions: peptide as substrate; FIG. 1

Row | Compound | normalized rates of liberation of orthophosphate from pY15CDK5 alanine substitution mutants vs wildtype [1] | competition for PTPRD phosphatase's hydrolysis of pNPP [2] | PTPRD's activity in dephosphorylating CDK5 phosphopeptide (positive allosteric modulation) [1] | PTPRD's activity in dephosphorylating GSK3 phosphopeptide (positive allosteric modulation) [1] | also measured
1 | YEALEKIGEGT-pY-GTVFKAKN [mutant 4] | trends | – | – | – | –
2 | YEKLEKIGEGTYGTVFKAKN [dephospho CDK5 peptide, CDK5 wildtype dephosphopeptide] | – | inactive | – | – | –
3 | O=c1c(O)c(-c2ccc(O)c(O)c2)oc2cc(O)cc(O)c12 [quercetin] | – | – | increased | increased | stimulation of orthophosphate liberation from phosphopeptides by PTPRD phosphatase, dose-response ([1]; FIG. 9, pYGSK3 and pYCDK5 phosphopeptides): active at micromolar concentrations
4 | O=c1c(O)c(-c2cc(O)c(O)c(O)c2)oc2cc(O)cc(O)c12 [myricetin] | – | – | trend-level | significant | –
5 | QLVRGEPNVS-pY-ICSRYYRAPE [GSK3 phosphopeptide] | – | competes | – | – | liberation of orthophosphate from phosphopeptide by PTPRD's phosphatase [3]: substantial liberation of orthophosphate
6 | YEKLEAIGEGT-pY-GTVFKAKN [mutant 2] | nominally-significant increases in activity | – | – | – | –
7 | YEALEAIGEGT-pY-GTVFKAKN [mutant 7] | nominally-significant increases in activity | – | – | – | –
8 | YEKLEKIGEGT-pY-GTVFKAKN [CDK5 phosphopeptide] | – | competes | – | – | liberation of orthophosphate from phosphopeptide by PTPRD's phosphatase [3]: rates similar to those found for the generic positive control substrate
9 | YEKLEKIGAGT-pY-GTVFKAKN [mutant 1] | trends | – | – | – | –
10 | O=c1c(O)c(-c2ccc(O)c(O)c2)oc2cc(O)ccc12 [fisetin] | – | – | trend-level | significant | –
11 | O=c1c(O)c(-c2ccc(O)cc2O)oc2cc(O)cc(O)c12 [morin] | – | – | trend-level | significant | –
12 | YAKLAKIGAGT-pY-GTVFKAKN [mutant 6] | nominally-significant (6) reductions in activity | – | – | – | –
13 | QLVRGEPNVSYICSRYYRAPE (QLVRGEPNVSSYICSRYYRAPE) [dephospho GSK3β, GSK3α peptide, GSK3β/α wildtype dephosphopeptide] | – | inactive | – | – | –
